OD units data for one molecule are collected here from patent US20060153851A1.

Several values for one entry are separate records, joined by “and”; a condition that tells them apart may be missing. Equal values may be shown once.

In the assay the target is each PDZ domain-containing protein (GST-DLG1, GST-NeDLG, and GST-PSD95 fusion proteins of FIG. 9B). Description: 30 µM biotinylated peptide on plate-bound GST-PDZ fusions, streptavidin-HRP (FIG. 9B).

B1: biotinylated synthetic peptide corresponding to the C-terminal 20 amino acids of CLASP-2 (peptide)
peptide: VLHHHQNPEFYDEIKIELPTQLHEKHHLLLTFFHVSCDNSSKGSTKKRDVVETQVGYSWLPLLKDGRVVTSEQHIPVSANLPSGYLGYQELGMGRHYGPEIKWVDGGKPLLKISTHLVSTVYTQDQHLHNFFQYCQKTESGAQALGNELVKYLKSLHAMEGHVMIAFLPTILNQLFRVLTRATQEEVAVNVTRVIIHVVAQCHEEGLESHLRSYVKYAYKAEPYVASEYKTVHEELTKSMTTILKPSADFLTSNKLLRYSWFFFDVLIKSMAQHLIENSKVKLLRNQRFPASYHHAAETVVNMLMPHITQKFGDNPEASKNANHSLAVFIKRCFTFMDRGFVFKQINNYISCFAPGDPKTLFEYKFEFLRVVCNHEHYIPLNLPMPFGKGRIQRYQDLQLDYSLTDEFCRNHFLVGLLLREVGTALQEFREVRLIAISVLKNLLIKHSFDDRYASRSHQARIATLYLPLFGLLIENVQRINVRDVSPFPVNAGMTVKDESLALPAVNPLVTPQKGSTLDNSLHKDLLGAISGIASPYTTSTPNINSVRNADSRGSLISTDSGNSLPERNSEKSNSLDKHQQSSTLGNSVVRCDKLDQSEIKSLLMCFLYILKSMSDDALFTYWNKASTSELMDFFTISEVCLHQFQYMGKRYIARNQEGLGPIVHDRKSQTLPVSRNRTGMMHARLQQLGSLDNSLTFNHSYGHSDADVLHQSLLEANIATEVCLTALDTLSLFTLAFKNQLLADHGHNPLMKKVFDVYLCFLQKHQSETALKNVFTALRSLIYKFPSTFYEGRADMCAALCYEILKCCNSKLSSIRTEASQLLYFLMRNNFDYTGKKSFVRTHLQVIISVSQLIADVVGIGETRFQQSLSIINNCANSDRLIKHTSFSSDVKDLTKRIRTVLMATAQMKEHENDPEMLVDLQYSLAKSYASTPELRKTWLDSMARIHVKNGDLSEAAMCYVHVTALVAEYLTRKGVFRQGCTAFRVITPNIDEEASMMEDVGMQDVHFNEDVLMELLEQCADGLWKAERYELIADIYKLIIPIYEKRRDFFEDEDGKEYIYKEPKLTPLSEISQRLLKLYSDKFGSENVKMIQDSGKVNPKDLDSKYAYIQVTHVIPFFDEKELQERKTEFERSHNIRRFMFEMPFTQTGKRQGGVEEQCKRRTILTAIHCFPYVKKRIPVMYQHHTDLNPIEVAIDEMSKKVAELRQLCSSAEVDMIKLQLKLQGSVSVQVNAGPLAYARAFLDDTNTKRYPDNKVKLLKEVFRQFVEACGQALAVNERLIKEDQLEYQEEMKANYREMAKELSEIMHEQICPLEEKTSVLPNSLHIFNAISGTPTSTMVHGMTSSSSVV
modifications: biotin at the amino-terminus
Turning to B1, the OD units at 30 µM peptide was 0.4 OD units and 1 OD units.
